Reference: US20180208675A1
Where a chain is given by its changes, count along the chain named. Where two headings read alike, the source gives them in different places. Blank lines part the entries; values can stand above or below the binder they belong to.

Experiments:
[1] = biological target: EA.hy926 cell surface associated TFPI (human) (UniProt P10646)
[2] = biological target: EA.hy926 cell surface associated TFPI (human) (UniProt P10646); test: flow cytometry on EA.hy926 cells, APC anti-human IgG secondary, median fluorescence intensity
[3] = biological target: EA.hy926 cell surface associated TFPI (human) (UniProt P10646); remark: listed apart in the source

B2: Fab 0094 (Fab fragment of mAb 2007) (Fab, V domains shown)
VH: EVQLVESGGGLVKPGGSLRLSCAASGFTFSNYAMSWVRQAPGKGLEWVSTISRSGSYSYYPDSVKGRFTISRDNAKNSLYLQMNSLRAEDTAVYYCARLGGYDEGDAMDSWGQGTTVTVSS
VL: DIVMTQTPLSLSVTPGQPASISCKSSQSLLESDGKTYLNWYLQKPGQSPQLLIYLVSILDSGVPDRFSGSGSGTDFTLKISRVEAEDVGVYYCLQATHFPQTFGGGTKVEIKR
- EC50 [2]: 3.8 nM

B3: Fab 0313 (Fab fragment of mAb 2000) (Fab, V domains shown)
VH: B2 VH with P61A
VL: B2 VL
- EC50 [2]: 25.9 nM

B6: Fab 0094-Fab 0089 conjugate 9004 (bispecific antibody)
heavy 1: EVQLVESGGGLVKPGGSLRLSCAASGFTFSNYAMSWVRQAPGKGLEWVSTISRSGSYSYYPDSVKGRFTISRDNAKNSLYLQMNSLRAEDTAVYYCARLGGYDEGDAMDSWGQGTTVTVSSASTKGPSVFPLAPCSRSTSESTAALGCLVKDYFPEPVTVSWNSGALTSGVHTFPAVLQSSGLYSLSSVVTVPSSSLGTKTYTCNVDHKPSNTKVDKRVESKYGPPC
light 1: DIVMTQTPLSLSVTPGQPASISCKSSQSLLESDGKTYLNWYLQKPGQSPQLLIYLVSILDSGVPDRFSGSGSGTDFTLKISRVEAEDVGVYYCLQATHFPQTFGGGTKVEIKRTVAAPSVFIFPPSDEQLKSGTASVVCLLNNFYPREAKVQWKVDNALQSGNSQESVTEQDSKDSTYSLSSTLTLSKADYEKHKVYACEVTHQGLSSPVTKSFNRGEC
heavy 2: QVQLQQSGAELVKPGASVKLSCKASGYTFISYYMYWVKQRPGQGLEWIGEINPSNGDTNLNEKFKSKATLTVDKSSSTVYMQLSSLTSEDSAVYYCTRWDRFDGFVYWGQGTLVTVSAASTKGPSVFPLAPCSRSTSESTAALGCLVKDYFPEPVTVSWNSGALTSGVHTFPAVLQSSGLYSLSSVVTVPSSSLGTKTYTCNVDHKPSNTKVDKRVESKYGPPC
light 2: ETTVTQSPASLSMAIGGKVTIRCIISTNIDDDINWYQQKPGEPPKLLISEGNTLRPGVPSRFSSSGYGTDFVFTIENMLSEDVADYYCLQSDDLPYTFGGGTKLEIKRTVAAPSVFIFPPSDEQLKSGTASVVCLLNNFYPREAKVQWKVDNALQSGNSQESVTEQDSKDSTYSLSSTLTLSKADYEKHKVYACEVTHQGLSSPVTKSFNRGEC
modifications: C-terminal cysteine coupled through the bis-maleimide linker to the Fab 0094 heavy chain; C-terminal cysteine coupled through 1,16-N,N'-bis(maleimido)-4,13-diaza-7,10-dioxa-3,14-dioxohexadecane to the C-terminal cysteine of the Fab 0089 heavy chain
- EC50 [2]: 6.9 nM

Stronger by EC50 [2], values ahead:

- EC50 (read off the curve) [3]: 2 nM
- EC50 [2]: 0.33 nM
B5: Fab 0088-Fab 0089 conjugate 9002 (bispecific antibody)
heavy 1: B6 heavy 1 with A40T, G42E, G44R, S49A, Y60F, K65Q
light 1: B6 light 1
heavy 2: B6 heavy 2
light 2: B6 light 2
modifications: C-terminal cysteine coupled through the bis-maleimide linker to the Fab 0088 heavy chain; C-terminal cysteine coupled through 1,16-N,N'-bis(maleimido)-4,13-diaza-7,10-dioxa-3,14-dioxohexadecane to the C-terminal cysteine of the Fab 0089 heavy chain

- EC50 [2]: 0.31 nM
B4: Fab 0088 (Fab fragment of mAb 2021) (Fab, V domains shown)
VH: B2 VH with A40T, G42E, G44R, S49A, Y60F, K65Q
VL: B2 VL

- EC50 (read off the curve) [1]: 1 nM
- EC50 [2]: 0.11 nM
B1: mAb 2021 (antibody, human IgG4 S228P, kappa, V domains shown)
VH: B2 VH with A40T, G42E, G44R, S49A, Y60F, K65Q
VL: B2 VL
